# Experimental data as given in the DeepSol protein solubility set.
# Experiment: soluble on expression in E. coli; label from the status in PepcDB or PDB records
row,Sequence,soluble on expression in E. coli
1,MNYPAEPFRIKSVETVSMISRDERVKKMQEAGYNTFLLNSKDIYIDLLTDSGTNAMSDKQWAGMMIGDEAYAGSENFYHLEKTVKELFGFKHIVPTHQGRGAENLLSQLAIKPGQYVAGNMYFTTTRFHQEKNGATFVDIVRDEAHDASLNLPFKGDIDLNKLATLIKEKGAENIAYICLAVTVNLAGGQPVSMANMRAVHEMASTYGIKIFYDATRCVENAYFIKEQEAGYENVSIKDIVHEMFSYADGCTMSGKKDCLVNIGGFLCMNDEEMFSAAKELVVVYEGMPSYGGLAGRDMEAMAIGLREAMQYEYIEHRVKQVRYLGDKLREAGVPIVEPTGGHAVFLDARRFCPHLTQDQFPAQSLAASIYMETGVRSMERGIVSAGRSKETGENHRPKLETVRLTIPRRVYTYAHMDVVADGIIKLYQHKEDIRGLTFVYEPKQLRFFTARFDFI,soluble
2,MNYPMIAGRVFGTPLLVDPVKGAAFLAGLGPRLVNGALELRGLEELAPDRVAEAGRIAPRASVLLDDAGDARREAGRPLYLVEGGVAVIEVTGTLVHRGGWIGQSSGTTSYEGLMAQISAAVADPSVRGIALEIDSYGGEVAGLFDLADAIRAARAVKPVRAFVAEAALSAAYAIASQAERIVLPRTGAVGSIGVLLVHADFSQAMADRGVAVTLIHAGRHKVDGNPYEALPEGVRADLQARVEASRALFAETVAAGRGARLSRQQALATEAQVLDGAAAVAAGLADEVSDLRRAFAAFRAELFDPHLTSPRAGTPAAAKETPTMTDETTTGAARGTAAEGSAPPMETAEGSGGGAPAANVAVAEAAELIEIGQQAARLGLAVDVADAMRRGLSAAALRRTVLDGLAARGDGADLVAHAPTAAAGPKESPLLAAARRTAEAQAASRRA,not soluble
3,MNYRIIPVTAFSQNCSLIWCEQTRLAALVDPGGDAEKIKQEVDDSGLTLMQILLTHGHLDHVGAAAELAQHYGVPVFGPEKEDEFWLQGLPAQSRMFGLEECQPLTPDRWLNEGDTISIGNVTLQVLHCPGHTPGHVVFFDDRAKLLISGDVIFKGGVGRSDFPRGDHNQLISSIKDKLLPLGDDVIFIPGHGPLSTLGYERLHNPFLQDEMPVW,soluble
4,MNYVPDTSVIVDGRFTAFISEREGSNVILPEAMLSEIEHQANEGRAIGFAALEELKKLRKMESEGKISIEIEGERPKEWQIKRAKSGEIDEMIRQVAFQYDATLVTGDIIQRDVAIVKGITVEYLSPPEKIIKNIEE,not soluble
5,MPAAQEVQISIAEVIEVRGYGLNAPELLSVAVSAADRLPPCPKGTVFDTENVFLNSKGELVIKTVATSRVDRSFVPPEWAKGEEDAQAAAVYCLGAVLRAAGAEEAADVDLFSLVNILTVAMTGTRPTAHRMGQMARNQLRGRDPASMLMCIYEELMGDEDTNQKRPNRKINFLNEKSMF,not soluble
6,MPAGANSRTPATDFVQDYAAKRQAQMERARQLREDRLQQQQQQRQSSPKTSGGGNAYNSSPTYTAVPSASGGGTATAAPTSRQPPPPSLNVPRSRHVTPGHDSADSGSSPGKCGDGCVLYIKEQDFKQATQAGIITPDQARQLWAMLSNQIIRVCSPSAHANAVSVSSLLALSNNSYNSSGWAAGGPQSTGGSEFGASISLESLRTSIAYFKREQQRLQQQGGGGAAGAAHGSNAQGRHPLSSSPPALSNTVGQPLSQSRGLPQRQLQYDGNANSDYCRNDGAANDNEQRALGAPMPLRGSGGSGGGGRGGRPAWNSDVEVRHEDDYDDDRNRHAPSSMSTMNSGAAALKKPRTGRTNTVRPAAKGPAASSSPAAGASGVLGTSAQGRGYGSDNEEAGNNAYMPQQPSSAVPRGAKAGGSGAASRRPPASRPTAPPPSSGAPVNLDDVPVGGGGGGGGGMNDWANAYPPGMVPPTSTGGNDAIAAEAAAAAQEPMQECRTCGRRFRISVVMRHEALCRNQANKPRKVFNMREQRLDGVEGIKEVQRTAARSGGGGGGRGAGGGGGRGGGADAAAGAAKGKLPKWKVQHEQFQAAMRAVRQQKEAGGGFGSGRMAPPPAPIPEEYDDRVPCPHCGRKFAQDVAARHIPKCATTIAKPKGIRPIRR,not soluble
7,MPAHSFRIAAIPGDGIGLEVLPEGIRVLEAAALKHGLALEFDTFEWASCDYYLQHGKMMPDDWAEQLKQYDAIYFGAVGWPDKVPDHISLWGSLLKFRREFDQYVNIRPVRLFPGVPCALANRKVGDIDFVVVRENTEGEYSSLGGIMFENTENEIVIQESIFTRRGVDRILKYAFDLAEKRERKHVTSATKSNGMAISMPYWDKRTEAMAAHYPHVSWDKQHIDILCARFVLQPERFDVVVASNLFGDILSDLGPACAGTIGIAPSANLNPERNFPSLFEPVHGSAPDIFGKNIANPIAMIWSGALMLEFLGQGDERYQRAHDDMLNAIERVIADGSVTPDMGGTLSTQQVGAAISDTLARLD,soluble
8,MPALKKIEQSLDHLFQIEKYGKDSAFSRFIPAVYDPIKFPWQQFFEANFVDLFNGLMMHGSENVNKVFLAVFPTDDVLETFISQSTPGDLLFMHHPLVMECGDPLGRSGRGFLPIPEKYLQGIKEKQLSIYTCHVPMDFHQTHGTSISIAKALNATVVDDFAYGGPEQEPVGLICEIDETSTEALQKHLKQLFQIPYTDFEGKRHDSIKKIAIIAGCGDVVSLMKEAEEKGAEAYITGEIHCHIDNDYGRHKYSLIMDYVKETNMSLIGVSHSASEYLVKETLMYDWFKENFDVDVILLPQEKWWLMAGDPLEHHHHHH,not soluble
9,MPCDPIGQFAVLECLDYRWYESLDVRLYGSFGLLQLFPELEKAVMRAFARAIPQGDDTPRVIGYYYTIGAESPIAVRKTPGATPHDLGAPNEHVWEKTNYTSYQDCNLWKDLGCDFVLQVYRDFLLTGADDVQFLRDCWDAIVETLDYVKTFDLDGDGIPENSGAPDQTFDDWRLQGVSAYCGGLWLAALAAAIAISDILLQNHQDSATKEHLLYQKSTYETWLTKSLPIYQEKLWNGKYYRLDSESGSDVVMADQLCGQFYANLLELPDIVPSDRAISALQTVYDACFLKFYDGQFGAANGVRPDGSPENPKATHPLEVWTGINFGLAAFLVQMGMKDEGFRLTQAVVEQIYNNGLQFRTPEAITAAGTFRASTYLRPMAIWAIYLMIGLEHHHHHH,not soluble
10,MPCQKKSNPTELHISTGREIVQRNFVFRNTTGKDFLLKLHATNEAVTFPTEVFRFPPLAHRAIQFRVNSSKLSQWDKMNLLIKGYVLPIYAKSLKQFIDQKKTAGTKEQEAFSLSVKFTDQFSAPQTVINLPGYATCIESTDYPVDVEELDTTTAVNIERDVSTAVPIGSMMGFVEEYKRRQLNKGCWFSNYICGTEKQPEKQSMRSSRRSSRSSNHSAKSSKACRIQANKKNKSDVNVCLEATPCGGSTIQA,not soluble
11,MPCRGLHSIPAGPVEFPEIATVYVMCGEKLTVMIDAGVSNSIADFSFLDKLDYIVLTHLHIDHIGLLPELLQVYKAKVLVKSGFKKYLTSEDGLKKLNESAEKVLGDLYYVYGGLEKKLDQDKVIEVEGNEEFDLGGYRMRLIYTPGHARHHMSVLVDDFLFTGDSAGAYFNGVVIPTTPPVIDYKMYMESLKRQIELKPKVVGFAHGGLVSPKIMEEHLKQMLSKEEIQINVDIGGVAGEILRKQIEVNLRGLRESKKSI,soluble
12,MPCRLTRLFGIEFPIIQAPMAGVQGSALAIAVSEAGGLGSLPCAMLSLEALEAELTAIRSQTAKPINVNFFCHREPVAQAAKQAAWLEQLAPYFAEFNLDPNAQPAGAQRTPYSKAQAEVLAKFKPEVVSFHFGLPDEELLLEIKSWGSKVISTATTVEEALWLEARGADAIIAQGLEAGGHRGHFLSEDLTEQLGTFSLLPQIIAAVEIPVIAAGGIVDATTVRAAMTMGASAVQVGTAYLLCPECNTSAIHREALQSDAAQHTALTNLFSGRPARGIVNRFMAEMGPMNEAVPDFPLASSAVAGLRTAAERLGFWDFSPLWCGQNASGCRAIPAADLTRSFVLSLPSSCVEPQEKSG,soluble
13,MPDNEVDLLFAQLSPEDLIEWSDYLPESFTDRALAQMGERQRQRFELYDQYSENEIGRYTDHQMLVLSDKATVAQAQRFFRRIELDCNDNLFIVDEADKYLGTVRRYDIFKHEPHEPLISLLSEDSRALTANTTLLDAAEAIEHSREIELPVIDDAGELIGRVTLRAATALVREHYEAQLMATAGMDESDDLFAPILKGAQRRAV,soluble
14,MPDRHVASSETKRGGAGMTDRELSDQAIAVLVDVARTAGRDLNAGQRLELDRLVSDGLVAVSTSGDPAGQRHYRLTVAGQTALDQRGVGANEA,not soluble
15,MPDSILEAARGGRTMQKYSEMSKEQLQAVKKELDQQYAEIKAQGLALDMSRGKPSVDQLNISMDMMDVLSSSTDLRCETGVDCRNYGVMDGIPEAKRLLGEISEVDPEHIIIYGNSSLNVMFDTVSRSMTHGVMGNTPWCKLDKVKFLCPVPGYDRHFKITEFFGIEMINVPMSPEGPDMDMVEKLVSEDPAIKGIWCVPKYSNPQGYTYSEETVKRFANLKPAAPDFRIYWDNAYSVHHLYDDEKDQDFLLEILDECAKAGNPDMVYKFTSTSKISFPGSGIAALAASKANLDDIRKYITVQTIGHDKLNQLRHVKFFKDLEGVHAHMRKHAAILRPKFEMVEATLEKELGGLGIGEWTTPKGGYFISFESLDGCAKKIVAMAKEAGVVMTGAGATYPYGKDPKDSNIRIAPSFPPIEELEKAAQVFVVCVKLASVEKLLAE,not soluble
16,MPDSLKSSIGYSRRFRLFRRGEVTVLEVMAGQKAYPDTLRYLLVPEGRPQPSGFVGYTVIRTPVKRIAVFSTTHIGFLDMLGRSDGIIGVSRPEFVNTPAVRSRIRSGAIKAIGMPFSPDVEALLNLEPDLVIAPALPAARKTDYQALVQAGIPVLVVAEWLEPSPLGRAEWIKLFGALVGKEKLARERFAAIESSYLKIAALSRNLPNRPTVLTGLPVKDAWYVPTGGSYVAAMLRDAGASYHWRDLPGTGSVPLTIEAVWPVALEAEYWLNTGTVSTLDELLAVDSRFGQMRSVRERRVWNNNRLVNAAGGNAYWESGVVRPDLILKDLVMILHPGLLRAHGIGEGELTFFQEVKLEHHHHHH,not soluble
17,MPDTSPDLPAMSPLAVYRQAVEQRGFAPDEAQRRAAEALERCFQALHEAHRHGAIQGVYLWGPVGRGKTWLMDHFYQCLRVPARRQHFHHFMQWVHQRQFELTGTADPLRALARELARDVRVLCFDELFVSDIGDAILLGSLLRIMFEEGVVLVATSNQPPEQLYADGFNRERFLPAIEAIQRHMAVVAVDGGQDHRLHPGRAEQRYWVVEAGQASGFAELFARLSAGEAASTQPIELGHRPLAVHRHSESVLWCSYAQLCEAPLSALDFIGLCDRYRAILMDDLPCLSASQREGRIARGTEDGAQLVEAGDRELPQLSVHDDGVRRFIALVDECYDRKVPLYLEARVPLEALYTEGYLAFAFRRTLSRLREMQLARFGSDSAG,not soluble
18,MPEAWIVEAVRTPIGKHGGALASVRPDDLLAHALSVLVDRSGVPKEEVEDVYAGCANQAGEDNRNVARMALLLAGFPVEVAGCTVNRLCGSGLEAVAQAARAIWAGEGKVYIGSGVESMSRAPYAVPKPERGFPTGNLVMYDTTLGWRFVNPKMQALYGTESMGETAENLAEMYGIRREEQDRFALLSHQKAVRAWEEGRFQDEVVPVPVKRGKEEILVEQDEGPRRDTSLEKLAALRPVFREGGTVTAGNSSPLNDGAAAVLLVSDDYAKAHGLRPLARVRAIAVAGVPPRIMGIGPVPATRKALERAGLSFSDLGLIELNEAFAAQALAVLREWSLSMEDQRLNPNGGAIALGHPLGASGARILTTLVHEMRRRKVQFGLATMCIGVGQGIAVVVEGMG,soluble
